Expression and transcriptional activity of HIF2α data for one substance are collected here from patent EP1902729A1.

The target of this assay is HIF2α protein. The assay is described as follows: cell-based or functional assay.

For the substance “Int6-ΔC (mutant in which the Int6 PINT (PCI) domain has been deleted)”, the expression and transcriptional activity of HIF2α is 2 fold.
